Results on 83 variants are retold here after the RNAGym collection of RNA variant scans (doi:10.1021/acssynbio.7b00057).

B1: Pistol ribozyme (parent)
chain: GGGUCGUUGUUCCAUAAUCGCGUGGAUAUGGCACGCAAGUUUCUACCGGGCACCGUAAAUGUCCGACUGGAGCCGUUCGGGCGGCUAUAAACAGACCUCAGGCCCGAAGCGUGGCGGCACCUGCCGCCGGUGGUAAAAAAGAUCGGAAGAGCACACGUCU

Variants of B1 are the subject of this series. The experiment in a line: aptazyme ON/OFF ratio, guanine; higher = stronger switching; co-transcriptional cleavage with and without guanine.
For the variant U7A U8A G9U U10A U11A C13A, the “aptazyme ON/OFF ratio” value came out at 1.23.
Turning to U7G U8A U11A C13G, the “aptazyme ON/OFF ratio” value was determined as 1.15.
With U8A U10C U11G C12A C13A, the “aptazyme ON/OFF ratio” value turned out to be 1.26.
Turning to U7C G9A U10C U11A C13A, the “aptazyme ON/OFF ratio” value worked out at 1.18.
As for U7C U8C G9A U10A U11G C13A, the “aptazyme ON/OFF ratio” value was determined as 1.21.
As to U7G U8G G9A U11C C13U, the “aptazyme ON/OFF ratio” value amounted to 1.28.
As to U8C G9A U10C U11G C13A, the “aptazyme ON/OFF ratio” value turned out to be 1.2.
U7A U8C G9A U10G U11A C12G: the “aptazyme ON/OFF ratio” value is 1.27.
Take U7A U8C G9U U10A C12A: the “aptazyme ON/OFF ratio” value turned out to be 1.25.
Under U7G U8A U11A C12U stands 1.43.
Take U7A G9C U10C U11C C12U: the “aptazyme ON/OFF ratio” value is 1.04.
As to G9A U10A U11G C12A, the “aptazyme ON/OFF ratio” value was determined as 1.02.
Take U7G U11G C12U C13G: the “aptazyme ON/OFF ratio” value turned out to be 1.12.
Under U7C U8A U11A C12U C13G stands 1.15; under U7C U8G U10C U11C C12A C13U, 1.15.
U7G U8G G9U U10C U11A C12U: the “aptazyme ON/OFF ratio” value was 1.28.
Under G9A U10G U11C C12U C13U stands 1.4.
U7A U8C U10C U11C C13U: the “aptazyme ON/OFF ratio” value worked out at 1.01.
For the variant U7A U8G G9C U10A U11G C12U C13A, the “aptazyme ON/OFF ratio” value was determined as 1.21.
With G9A U10A U11A, the “aptazyme ON/OFF ratio” value was determined as 2.7.
As for U8G G9U U10C U11A, the “aptazyme ON/OFF ratio” value is 1.27.
Turning to U8G G9U U10C U11G, the “aptazyme ON/OFF ratio” value came to 1.15.
The result for U7A U8C G9C U10A U11A C12G C13G reads 1.08.
As for U7A U11C C13A, the “aptazyme ON/OFF ratio” value stood at 1.19.
On to U7C G9U U10G C12A C13G, for which the “aptazyme ON/OFF ratio” value is 1.13.
With U7A U8A G9A U10A U11G C12A C13G, the “aptazyme ON/OFF ratio” value turned out to be 1.24.
As to U7C U8G G9U U10C U11G, the “aptazyme ON/OFF ratio” value came to 1.23.
Turning to U7G G9U C12G C13A, the “aptazyme ON/OFF ratio” value was 1.16.
For the variant U7A U8A G9C U10G U11A C12A C13U, the “aptazyme ON/OFF ratio” value came out at 1.2.
For the variant U7A U8G G9U U11A C12U C13A, the “aptazyme ON/OFF ratio” value was 1.43.
Under U7C U8C G9U U11C stands 1.1; under U8C G9A U10G U11C C12U C13U, 1.28.
Under U8A C13U stands 1.43; under U8C U10C C12U C13G, 1.26.
Under U7G U8G G9A U10C U11G C12U C13G stands 1.16; under U7A U8C G9A C12A, 1.22.
U7A U8C U11G C12G C13A: the “aptazyme ON/OFF ratio” value worked out at 1.04.
Regarding U7C U8G G9A U10C U11C C12U C13G, the “aptazyme ON/OFF ratio” value amounted to 1.01.
The result for U7A U8C G9U U10C C12A C13A reads 1.14.
G9U U10C U11C C12A C13G: the “aptazyme ON/OFF ratio” value was determined as 1.27.
The result for U7G U8C G9C U10A U11C C12A C13U reads 1.27; that for U7C U8A U10A C12U, 1.13; that for U8A G9U U10C C13G, 1.04.
Turning to U7C U8G G9A U10A U11A C12G C13G, the “aptazyme ON/OFF ratio” value was 1.21.
Under U8A G9U U10G C12G C13A stands 1.29; under U7A U8G G9C U11G C12U C13U, 1.4; under U7A U10A C13A, 1.07.
Under U7C U8A G9A U10A U11A C12A C13U stands 1.18.
U7C U8A G9A U10A U11A C12A C13A: the “aptazyme ON/OFF ratio” value was 1.24.
Under U7C U8A G9U U11C C12G C13G stands 1.12; under U7A U8G G9U U10A U11G C12G C13A, 1.05; under U7A U10C C12U C13U, 1.33.
Turning to U7A U8A U10G U11G C12G C13U, the “aptazyme ON/OFF ratio” value stood at 1.4.
Take C12G C13U: the “aptazyme ON/OFF ratio” value was determined as 1.36.
In the case of U8A G9C U10A C13A, the “aptazyme ON/OFF ratio” value was 1.15.
On to U8C U11A C12A C13G, for which the “aptazyme ON/OFF ratio” value was 1.11.
U8C U10G U11A C12A C13U: the “aptazyme ON/OFF ratio” value came to 1.2.
Consider U7A U8A G9U U10C U11A C12U, for which the “aptazyme ON/OFF ratio” value worked out at 1.23.
As for G9A U10A C13A, the “aptazyme ON/OFF ratio” value stood at 1.41.
Under G9C U11G C12G C13G stands 1.07; under U8A C12A C13A, 1.24.
Turning to U7A U8A C12U, the “aptazyme ON/OFF ratio” value is 1.59.
Turning to U7G U8C G9A U10A U11A, the “aptazyme ON/OFF ratio” value amounted to 3.25.
Regarding U8G G9C U10A U11G C12A, the “aptazyme ON/OFF ratio” value came out at 1.07.
For U7A U8C G9C U11G C12A, the “aptazyme ON/OFF ratio” value was determined as 1.08.
As for U7G U8C G9U U10C U11A C12U, the “aptazyme ON/OFF ratio” value came to 2.96.
The result for G9U U10G U11A C12U C13U reads 1.85; that for U8C G9U U11C C12U C13A, 1.04; that for U7A U8G G9U U10C U11G C13A, 1.28.
Under U7G U8G G9A U10G U11A C12G C13G stands 1.18; under U7C U8C G9U U10A C13U, 1.27; under U7C U8A G9U U10C U11A C12U C13G, 1.09.
Take U7C U8C U10C U11G C12A C13U: the “aptazyme ON/OFF ratio” value was found to be 1.52.
Consider U7C G9U U11G C12A C13U, for which the “aptazyme ON/OFF ratio” value came out at 1.14.
Under U7G U10C U11C C12A C13G stands 1.08; under U7G U8C U11C C12A, 1.69; under U7C U8A U11G C13G, 1.06.
Take U8A G9U U10C U11A: the “aptazyme ON/OFF ratio” value is 1.34.
For the variant U7G U8G G9C U10C C13G, the “aptazyme ON/OFF ratio” value was found to be 1.15.
Turning to U7G G9C U10A C13A, the “aptazyme ON/OFF ratio” value worked out at 1.2.
In the case of U7C U8G G9A U10A, the “aptazyme ON/OFF ratio” value stood at 1.18.
For the variant U7C U8C U10G U11G C12G C13U, the “aptazyme ON/OFF ratio” value was determined as 1.14.
Under U7C U8A G9A C12U C13A stands 1.19.
